{
  "source": "patent US20110262525A1",
  "about": "“METHODS OF TREATMENT” (SCHERING CORPORATION, priority 2006, published 2011)",
  "molecules": {"B1": {"name": "LCF/HCA: fully human anti-IGF1R antibody comprising the mature 19D12/15H12 light chain F (LCF) and mature heavy chain A (HCA) (antibody, V domains shown)", "VH": "EVQLVQSGGGLVHPGGSLRLSCAASGFTFSSFAMHWVRQAPGKGLEWISVIDTRGATYYADSVKGRFTISRDNAKNSLYLQMNSLRAEDMAVYYCARLGNFYYGMDVWGQGTTVTVSS", "VL": "EIVLTQVPDFQSVTPKEKVTITCRASQSIGSSLHWYQQKPDQSPKLLIKYASQSLSGVPSRFSGSGSGTDFTLTINSLEAEDAAAYYCHQSSRLPHTFGGGTKVEIKRT"}},
  "key": {"[1]": {"test_system": "BT-29 xenograft (Rhabdoid)", "assay": "PPTP in vivo xenograft BT-29", "details": "BT-29 (Rhabdoid) xenograft, 0.5 mg per mouse ip twice weekly for four weeks", "experimental": "(§1) The PPTP includes a molecularly characterized in vitro panel of cell lines (n=27) and in vivo panel of xenografts (n=61) representing most of the common types of childhood solid tumors and childhood ALL (acute lymphoblastic leukemia). LCF/HCA anti-IGF1R antibody was tested against the PPTP in vitro panel at concentrations ranging from 0.01 nM to 100 nM; and was tested against the PPTP in vivo panel at a dose of 0.5 mg per mouse administered twice weekly for four weeks via intraperitoneal injection. Three measures of antitumor activity were used: 1) response criteria modeled after the clinical setting; 2) treated-to-control (T/C) tumor volume at day 21; and 3) a time to event (4-fold increase in tumor volume) measure based on the median EFS of treated and control lines (intermediate activity required EFS (event-free survival) T/C>2, and high activity additionally required a net reduction in median tumor volume at the end of the experiment).\n(§2) Stage 1 testing involved testing an agent across the entire PPTP panel of childhood cancer xenograft lines at its maximum tolerated dose (MTD) or at a dose selected based on PK/PD (pharmacokinetic/pharmacodynamic) studies using adult preclinical models.\n(§3) In vivo solid tumor testing: For each xenograft line, 10 mice bearing subcutaneous (SC) tumors initiated treatment when the tumors were between 0.2-0.5 cm^3 in volume. Two perpendicular tumor diameters were measured at once weekly intervals with digital vernier calipers. Assuming tumors to be spherical, volumes were calculated from the formula (π/6)×d3, where d represented the mean diameter.\n(§4) Drug: LCF/HCA was dissolved in 20mM sodium acetate pH 5 buffer containing 150 mM sodium chloride, and administered intraperitoneally twice weekly for 4 consecutive weeks at a dose of 0.5 mg per animal. […]\n(§5) Median Group Response: Each individual mouse in each treatment group was assigned a response score (see Tables above) and a median score for the treatment group was calculated and then each treatment group was assigned an overall response according to the table below. […]"}, "[2]": {"test_system": "Rh18 xenograft (EMB Rhabdomyosarcoma)", "assay": "PPTP in vivo xenograft Rh18", "experimental": "as §1, §2, §3, §4, §5"}, "[3]": {"test_system": "ALL-8 xenograft (ALL T-cell)", "assay": "PPTP in vivo leukemia xenograft ALL-8", "details": "ALL-8 (ALL T-cell) xenograft; 0.5 mg per mouse ip twice weekly for four weeks", "experimental": "(§6) The PPTP includes a molecularly characterized in vitro panel of cell lines (n=27) and in vivo panel of xenografts (n=61) representing most of the common types of childhood solid tumors and childhood ALL (acute lymphoblastic leukemia). LCF/HCA anti-IGF1R antibody was tested against the PPTP in vitro panel at concentrations ranging from 0.01 nM to 100 nM; and was tested against the PPTP in vivo panel at a dose of 0.5 mg per mouse administered twice weekly for four weeks via intraperitoneal injection. […]\n(§7) In vivo acute lymphoblastic leukemia testing: For each xenograft line, 8 mice were inoculated with 3-5×10^6 mononuclear cells purified from the spleens of secondary recipient mice. Engraftment was monitored weekly by flow cytometry, and treatment was initiated when the proportion of human CD45+ cells in the peripheral blood reached 1%. The proportion of human CD45+ cells in the peripheral blood was monitored weekly throughout the course of treatment. […]\nas §5"}, "EW8 xenograft (Ewings)": {"test_system": "EW8 xenograft (Ewings)", "assay": "PPTP in vivo xenograft EW8", "experimental": "as §1, §2, §3, §4, §5"}, "[4]": {"test_system": "D456 xenograft (Glioblastoma)", "assay": "PPTP in vivo xenograft D456", "experimental": "as §1, §2, §3, §4, §5"}, "[5]": {"test_system": "Rh30R xenograft (ALV Rhabdomyosarcoma)", "assay": "PPTP in vivo xenograft Rh30R", "experimental": "as §1, §2, §3\n(§8) Drug: LCF/HCA was dissolved in 20mM sodium acetate pH 5 buffer containing 150 mM sodium chloride, and administered intraperitoneally twice weekly for 4 consecutive weeks at a dose of 0.5 mg per animal. The antibody was provided to each testing site in coded vials for blinded testing according the PPTP's standard operating procedures.\n(§9) Median Group Response: Each individual mouse in each treatment group was assigned a response score (see Tables above) and a median score for the treatment group was calculated and then each treatment group was assigned an overall response according to the table below.\n(§10) Statistical Methods: Event-free survival (EFS) distributions of each treatment group were compared to the EFS distribution of the respective control group using the exact log rank test. P-values were 2-sided & were not adjusted for multiple comparisons given the exploratory nature of this study. P-values<0.05 were considered to be significant."}, "[6]": {"test_system": "ALL-7 xenograft (ALL B-precursor)", "assay": "PPTP in vivo leukemia xenograft ALL-7", "details": "ALL-7 (ALL B-precursor) xenograft; 0.5 mg per mouse ip twice weekly for four weeks", "experimental": "as §6, §7, §5"}, "[7]": {"test_system": "BT-28 xenograft (Medulloblastoma)", "assay": "PPTP in vivo xenograft BT-28", "details": "BT-28 (Medulloblastoma) xenograft, 0.5 mg per mouse ip twice weekly for four weeks", "experimental": "as §1, §2, §3, §4, §5"}, "EW5 xenograft (Ewings)": {"test_system": "EW5 xenograft (Ewings)", "assay": "PPTP in vivo xenograft EW5", "design": "key to EFS activity notation (high, intermediate, indeterminate): high (!); intermediate (#); indeterminate (^)", "experimental": "as §1, §2, §3, §8, §9, §10"}, "[8]": {"test_system": "CHLA-79 xenograft (Neuroblastoma)", "assay": "PPTP in vivo xenograft CHLA-79", "design": "key to EFS activity notation (high, intermediate, indeterminate): high (!); intermediate (#); indeterminate (^)", "details": "CHLA-79 (Neuroblastoma) xenograft, 0.5 mg per mouse ip twice weekly for four weeks", "experimental": "as §1, §2, §3, §8, §9, §10"}, "[9]": {"test_system": "OS-9 xenograft (Osteosarcoma)", "assay": "PPTP in vivo xenograft OS-9", "design": "key to EFS activity notation (high, intermediate, indeterminate): high (!); intermediate (#); indeterminate (^)", "details": "OS-9 (Osteosarcoma) xenograft, 0.5 mg per mouse ip twice weekly for four weeks", "experimental": "as §1, §2, §3, §8, §9, §10"}, "[10]": {"test_system": "Human melanoma cells (A375-SM)", "assay": "Cell-Titer Glo assay, A375-SM melanoma", "type": "cell-based", "details": "0.000256-100 nM antibody"}, "[11]": {"test_system": "NB-SD xenograft (Neuroblastoma)", "assay": "PPTP in vivo xenograft NB-SD", "design": "key to EFS activity notation (high, intermediate, indeterminate): high (!); intermediate (#); indeterminate (^)", "experimental": "as §1, §2, §3, §8, §9, §10"}, "[12]": {"test_system": "KT-16 xenograft (Rhabdoid)", "assay": "PPTP in vivo xenograft KT-16", "details": "KT-16 (Rhabdoid) xenograft, 0.5 mg per mouse ip twice weekly for four weeks", "experimental": "as §1, §2, §3, §4, §5"}, "[13]": {"details": "0.5 mg per mouse ip twice weekly for four weeks"}, "[14]": {"details": "day 21, 0.5 mg per mouse ip twice weekly for four weeks"}},
  "note": "Marks after values point to notes of the source that are not given here.",
  "data": [
    {"molecule": "B1", "values": [
      {"measurement": "EFS T/C", "setting": "[1]", "result": 1.4},
      {"measurement": "Median Final RTV", "setting": "[1]", "result": ">4"},
      {"measurement": "Tumor Volume T/C", "setting": "[1]; day 21", "result": 0.77},
      {"measurement": "EFS T/C", "setting": "[2]; [13]", "result": 1},
      {"measurement": "Median Final RTV", "setting": "[2]; [13]", "result": ">4"},
      {"measurement": "Tumor Volume T/C", "setting": "[2]; [14]", "result": 0.74},
      {"measurement": "EFS T/C", "setting": "[3]", "result": 1.5},
      {"measurement": "Median Final RTV", "setting": "[3]", "result": ">25"},
      {"measurement": "EFS T/C", "setting": "EW8 xenograft (Ewings); [13]", "result": 1.5},
      {"measurement": "Median Final RTV", "setting": "EW8 xenograft (Ewings); [13]", "result": ">4"},
      {"measurement": "Tumor Volume T/C", "setting": "EW8 xenograft (Ewings); [14]", "result": 0.86},
      {"measurement": "EFS T/C", "setting": "[4]; [13]", "result": 1.1},
      {"measurement": "Median Final RTV", "setting": "[4]; [13]", "result": ">4"},
      {"measurement": "Tumor Volume T/C", "setting": "[4]; [14]", "result": 0.77},
      {"measurement": "EFS T/C", "setting": "[5]; [13]", "result": 1.8},
      {"measurement": "Median Final RTV", "setting": "[5]; [13]", "result": ">4"},
      {"measurement": "Overall Group Response", "setting": "[5]; [13]", "result": "PD2 (1 < MS ≦ 3)"},
      {"measurement": "Tumor Volume T/C", "setting": "[5]; [14]", "result": 0.49},
      {"measurement": "EFS T/C", "setting": "[6]", "result": 1},
      {"measurement": "Median Final RTV", "setting": "[6]", "result": ">25"},
      {"measurement": "EFS T/C", "setting": "[7]", "result": 1.2},
      {"measurement": "Median Final RTV", "setting": "[7]", "result": ">4"},
      {"measurement": "Tumor Volume T/C", "setting": "[7]; day 21", "result": 1.18},
      {"measurement": "EFS T/C", "setting": "EW5 xenograft (Ewings); [13]", "result": "> 2.3"},
      {"measurement": "EFS activity notation (high, intermediate, indeterminate)", "setting": "EW5 xenograft (Ewings); [13]", "result": "!"},
      {"measurement": "Median Final RTV", "setting": "EW5 xenograft (Ewings); [13]", "result": "0.4!"},
      {"measurement": "Overall Group Response", "setting": "EW5 xenograft (Ewings); [13]", "result": "CR* (7 < MS ≦ 9)"},
      {"measurement": "Tumor Volume T/C", "setting": "EW5 xenograft (Ewings); [14]", "result": 0.12},
      {"measurement": "EFS T/C", "setting": "[8]", "result": 2.1},
      {"measurement": "EFS activity notation (high, intermediate, indeterminate)", "setting": "[8]", "result": "#"},
      {"measurement": "Median Final RTV", "setting": "[8]", "result": "3.9#"},
      {"measurement": "Overall Group Response", "setting": "[8]", "result": "PD2 (1 < MS ≦ 3)"},
      {"measurement": "Tumor Volume T/C", "setting": "[8]; day 21", "result": 0.69},
      {"measurement": "EFS T/C", "setting": "[9]", "result": "> 1.2"},
      {"measurement": "EFS activity notation (high, intermediate, indeterminate)", "setting": "[9]", "result": "^"},
      {"measurement": "Median Final RTV", "setting": "[9]", "result": "0.4^"},
      {"measurement": "Tumor Volume T/C", "setting": "[9]; day 21", "result": 0.31},
      {"measurement": "in vitro growth of melanoma cell line", "setting": "[10]", "result": "in vitro growth inhibition"},
      {"measurement": "EFS T/C", "setting": "[11]; [13]", "result": "> 1.8"},
      {"measurement": "EFS activity notation (high, intermediate, indeterminate)", "setting": "[11]; [13]", "result": "^"},
      {"measurement": "Median Final RTV", "setting": "[11]; [13]", "result": "3.7^"},
      {"measurement": "Overall Group Response", "setting": "[11]; [13]", "result": "PD2 (1 < MS ≦ 3)"},
      {"measurement": "Tumor Volume T/C", "setting": "[11]; [14]", "result": 0.41},
      {"measurement": "EFS T/C", "setting": "[12]", "result": 1.2},
      {"measurement": "Median Final RTV", "setting": "[12]", "result": ">4"},
      {"measurement": "Tumor Volume T/C", "setting": "[12]; day 21", "result": 0.5}
    ]}
  ]
}
